This passage reports stimulation factor of S-2765 hydrolysis: Kcat/Km with fibrin cofactor (100 μg/mL) over Kcat/Km without cofactor results from publication PMC9497888.

For this experiment, the target named is fibrin (human) (UniProt P02671).
Sequence of UniProt P02671 (P02671 36-866, chain 1 of 3): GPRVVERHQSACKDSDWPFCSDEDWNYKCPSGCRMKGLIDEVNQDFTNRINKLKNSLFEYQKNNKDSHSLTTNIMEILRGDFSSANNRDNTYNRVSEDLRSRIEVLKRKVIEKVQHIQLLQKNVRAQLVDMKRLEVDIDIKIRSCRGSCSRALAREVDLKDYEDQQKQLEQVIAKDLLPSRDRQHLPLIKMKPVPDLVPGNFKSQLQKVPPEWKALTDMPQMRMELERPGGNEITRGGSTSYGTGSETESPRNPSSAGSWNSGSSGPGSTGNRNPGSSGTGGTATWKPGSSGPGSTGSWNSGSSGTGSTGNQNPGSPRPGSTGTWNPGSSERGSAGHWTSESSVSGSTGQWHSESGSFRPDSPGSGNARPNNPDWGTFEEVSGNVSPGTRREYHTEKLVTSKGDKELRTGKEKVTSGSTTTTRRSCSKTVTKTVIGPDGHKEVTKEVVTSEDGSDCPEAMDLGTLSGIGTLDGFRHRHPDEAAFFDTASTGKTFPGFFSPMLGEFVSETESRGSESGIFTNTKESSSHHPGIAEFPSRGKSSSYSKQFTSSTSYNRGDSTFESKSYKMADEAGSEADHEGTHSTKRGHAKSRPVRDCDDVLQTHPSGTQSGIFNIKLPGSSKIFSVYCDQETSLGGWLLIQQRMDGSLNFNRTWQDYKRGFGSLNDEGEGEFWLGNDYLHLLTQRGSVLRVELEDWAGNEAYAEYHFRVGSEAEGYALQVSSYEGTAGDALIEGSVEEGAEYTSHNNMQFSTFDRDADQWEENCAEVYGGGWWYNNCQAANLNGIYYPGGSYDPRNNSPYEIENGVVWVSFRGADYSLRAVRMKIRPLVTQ
Sequence of UniProt P02671 (P02675 45-491, chain 2 of 3, further chain): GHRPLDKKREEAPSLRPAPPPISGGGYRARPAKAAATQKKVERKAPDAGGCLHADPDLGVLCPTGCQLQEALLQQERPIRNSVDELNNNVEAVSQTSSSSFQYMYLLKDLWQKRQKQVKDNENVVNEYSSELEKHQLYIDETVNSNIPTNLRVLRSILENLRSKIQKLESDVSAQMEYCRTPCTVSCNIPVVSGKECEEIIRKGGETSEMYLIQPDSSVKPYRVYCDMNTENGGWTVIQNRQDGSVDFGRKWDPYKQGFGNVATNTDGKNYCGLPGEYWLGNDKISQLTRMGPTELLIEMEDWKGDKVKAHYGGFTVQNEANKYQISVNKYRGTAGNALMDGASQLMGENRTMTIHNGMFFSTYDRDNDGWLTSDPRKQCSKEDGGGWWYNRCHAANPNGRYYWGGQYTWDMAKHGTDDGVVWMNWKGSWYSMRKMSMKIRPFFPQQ
Sequence of UniProt P02671 (P02679 27-453, chain 3 of 3, further chain): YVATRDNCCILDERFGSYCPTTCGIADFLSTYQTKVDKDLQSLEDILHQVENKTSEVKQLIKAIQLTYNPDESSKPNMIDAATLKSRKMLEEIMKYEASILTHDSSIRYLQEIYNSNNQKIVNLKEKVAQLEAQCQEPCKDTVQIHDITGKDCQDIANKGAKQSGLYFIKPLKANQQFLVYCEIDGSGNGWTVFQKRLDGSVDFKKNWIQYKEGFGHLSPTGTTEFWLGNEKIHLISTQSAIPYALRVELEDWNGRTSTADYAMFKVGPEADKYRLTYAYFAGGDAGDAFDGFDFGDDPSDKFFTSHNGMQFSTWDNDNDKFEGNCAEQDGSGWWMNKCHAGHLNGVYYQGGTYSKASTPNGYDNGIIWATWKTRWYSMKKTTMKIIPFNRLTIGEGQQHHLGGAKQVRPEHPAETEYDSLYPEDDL
On to “ANGlyα2+1 (DSPAα2 N155S, added N-glycosylation site N153) (from UniProt P15638 37-477) (enzyme)”, for which the stimulation factor of S-2765 hydrolysis: Kcat/Km with fibrin cofactor (100 μg/mL) over Kcat/Km without cofactor was found to be 3.1 fold.

In turn, “QNGlyα2 (DSPAα2 N185Q-N398Q) (from UniProt P15638 37-477) (enzyme)” registered a stimulation factor of S-2765 hydrolysis: Kcat/Km with fibrin cofactor (100 μg/mL) over Kcat/Km without cofactor of 1.7 fold.

In the case of “QNGlyα2-1 (DSPAα2 N185Q) (from UniProt P15638 37-477) (enzyme)”, the stimulation factor of S-2765 hydrolysis: Kcat/Km with fibrin cofactor (100 μg/mL) over Kcat/Km without cofactor came out at 2 fold.

With “QNGlyα2-2 (DSPAα2 N398Q) (from UniProt P15638 37-477) (enzyme)”, the stimulation factor of S-2765 hydrolysis: Kcat/Km with fibrin cofactor (100 μg/mL) over Kcat/Km without cofactor was 7.4 fold.

In turn, “recombinant DSPAα2 (bat plasminogen activator α2), wild type (from UniProt P15638 37-477) (enzyme)” gave a stimulation factor of S-2765 hydrolysis: Kcat/Km with fibrin cofactor (100 μg/mL) over Kcat/Km without cofactor of 11.3 fold.
